Measured values as given in patent US10197572B2, “Method and kit for detection of deltanoid-resistant leukemia cells and antibody for use therein” (WROCLAWSKIE CENTRUM BADAN EIT+ SP. Z O.O., priority 2014, dated 2019).

Assays:
KG1 cells [1] = experiment: expression of differentiation antigens CD11b and CD14 after exposure to deltanoids; type: cell-based; conditions: FIG. 4b
Text: According to the invention, cells from the KG1 acute myeloid leukemia line were used as a model for cells resistant to differentiation mediated by deltanoids. […] Effect on clonal proliferation and differentiation of human myeloid cells. J Clin Invest, 1986. 78: p. […] J Steroid Biochem Mol Biol, 2012. 132(3-5): p. 220-6]. The HL60 acute myeloid leukemia cell line, used in laboratories engaged in studying deltanoid-mediated differentiation, served as a sensitive line model [Marcinkowska, E. et al., Cell differentiating and anti-proliferative activity of side-chain modified analogs of 1,25-dihydroxyvitamin D3. J Steroid Biochem Mol Biol, 1998. 67(1): p. 71-8; Gallagher, R. et al., Characterization of the continuous, differentiating myeloid cell line (HL-60) from a patient with acute promyelocytic leukemia. Blood, 1979. 54: p. 713-733; Brackman, D. et al., Expression of cell surface antigens during the differentiation of HL-60 cells induced by 1,25-dihydroxyvitamin D3, retinoic acid and DMSO. Leuk Res, 1995. 19: p. 57-64].
Studying susceptibility to differentiation mediated by deltanoids is done in a number of ways. One of these is observing the appearance of antigens typical for macrophages on the surface of deltanoid (calcitriol or analogs) treated cells, serving important functions for the macrophages. […]

HL60 cells [2] = conditions: exposure even to low concentrations; cited from earlier work
KG1-CtrA cells [3] = experiment: expression of differentiation antigens CD11b and CD14 after exposure to deltanoids; type: cell-based; conditions: unpublished data
KG1 cells [4] = conditions: exposure even to high concentrations; cited from earlier work
HL60 cells [5] = experiment: flow cytometry, sandwich labeling with scFv and FITC-conjugated secondary antibody; type: binding; conditions: HL60 + 6B + anti-c-myc-FITC, sandwich method
Procedure: (§1) As a confirmation of the ELISA assays, the flow cytometry analysis was conducted, wherein the cells were labeled with a FITC-conjugated antibody in an scFv format (direct labeling) or with an antibody in an scFv format and then with a FITC-conjugated secondary antibody recognizing the former (sandwich method).
(§2) Optimal dilution of the secondary antibody in the sandwich method is 1:100 or 1:50 (10^5 cells).

KG1 cells [6] = experiment: as above; type: binding; conditions: KG1 + 6B + anti-c-myc-FITC, sandwich method
Procedure: as §1, §2

KG1 cells [7] = experiment: library screening with the ELISA method on whole cells; type: binding; conditions: FIG. 1, background subtracted
Text: The OD450-OD650 signal informs of the binding strength of the tested antibody to KG1 cells (more particularly: of the amount of the antibody bound to the antigen, being then recognized by a secondary HRP-conjugated antibody). Background signal, namely OD450-OD650 for the control with only the secondary antibody, was then subtracted from all measurements. The numbers and letters indicate the position on a 96-well plate.
(§3) Screening the library in order to find antibodies in an scFv format, specifically interacting with the KG1 line, was done based on ELISA according to the Tomlinson protocol (phages with envelope protein fused with scFv after expression on a 96-well plate served as the primary antibody for ELISA). Again, the cells were not immobilized on a Nunc U plate but only centrifuged in mild conditions. The identified positive clones were expressed in the form of solubilized scFv (without fusion with a phage envelope protein) and purified on a protein A resin, and then tested on KG1 cells and HL60 cells obtaining desired results (specificity against KG1 line) (FIG. 1).

HL60 cells [8] = experiment: ELISA on whole cells; type: binding
Text: as §3
At the same time, it was observed that the HL60 cells spontaneously convert the substrate for HRP conjugated with the secondary antibody, giving results that need to be analyzed with caution. To this end, the reaction for HL60 was stopped sooner but the results required additional confirmation with a different method anyway.

KG1-CtrA cells [9] = experiment: flow cytometry, direct labeling with FITC-labeled scFv; type: binding; conditions: 1 μg 6B/FITC, 5×10^5 KG1-CtrA cells, FIG. 5
Procedure: (§4) FITC-labeled 6B and 8F antibodies were used to label the HL60, KG1 and KG1-CtrA cells. To this end, 5×10^5 cells of each were suspended in 50 μl of PBS buffer without calcium and magnesium ions with 0.1% BSA. Either 1 μg of the 8F/FITC protein or 1 μg of the 6B/FITC protein were added to each suspension. Samples were incubated for 45 minutes in darkness on ice, then washed with PBS without calcium and magnesium ions, supplemented with 0.1% BSA and subsequently fluorescence of the samples was read by flow cytometry.

HL60 cells [10] = experiment: as above; type: binding
Procedure: as §4

KG1 cells [11] = experiment: as above; type: binding
Procedure: as §4

C=C1/C(=C\C=C2/CCC[C@]3(C)[C@@H]([C@H](C)CCCC(C)(C)O)CC[C@@H]23)C[C@@H](O)C[C@@H]1O [calcitriol]
differentiation after exposure (KG1 cells [1]): lack of differentiation | expression of CD14 and CD11b antigens (HL60 cells [2]): significantly increase expression | expression of differentiation antigens CD11 b and CD14 (KG1-CtrA cells [3]): significantly increase expression | CD11 b and CD14 expression (KG1 cells [4]): do not alter

B1: 6B: scFv of SEQ ID NO: 1, which specifically recognizes KG1 cells line, obtained by phage display (protein)
scFv: EVQLLESGGGLVQPGGSLRLSCAASGFTFSSYGMSWVRQAPGKGLEWVSTIRTAGRATEYADSVKGRFTISRDNSKNTLYLQMNSLRAEDTAVYYCAKSPQTFDYWGQGTLVTVSSGGGGSGGGGSGGGGSTDIQMTQSPSSLSASVGDRVTITCRASQSISSYLNWYQQKPGKAPKLLIYRASRLQSGVPSRFSGSGSGTDFTLTISSLQPEDFATYYCQQRLTIPITFGQGTKVEIKRAAA
modifications: antibody 6B
FITC+: GeoMean (HL60 cells [5]): 9.8 | FITC+: mean (HL60 cells [5]): 10.7 | FITC+: median (HL60 cells [5]): 8.9 | FITC+: % Vis (KG1 cells [6]): 100.0% | FITC+: GeoMean (KG1 cells [6]): 28.1 | FITC+: mean (KG1 cells [6]): 29.4 | FITC+: median (KG1 cells [6]): 28.4 | OD450-OD650 signal (binding strength to KG1 cells) (KG1 cells [7]): clearly prominent | ELISA signal in comparison to control with non-specific scFv (HL60 cells [8]): no increased signal | presence of the 6B-binding antigen (KG1-CtrA cells [9]): lost

B2: 8F: scFv of SEQ ID NO: 2, negative control, same framework as 6B, differing only in hypervariable fragments (protein)
scFv: EVQLLESGGGLVQPGGSLRLSCAASGFTFSSYGMSWVRQAPGKGLEWVSWIDASGTRTQYADSVKGRFTISRDNSKNTLYLQMNSLRAEDTAVYYCAKLFRSFDYWGQGTLVTVSSGGGGSGGGGSGGGGSTDIQMTQSPSSLSASVGDRVTITCRASQSISSYLNWYQQKPGKAPKLLIYRASSLQSGVPSRFSGSGSGTDFTLTISSLQPEDFATYYCQQGQTLPITFGQGTKVEIKRAAA
modifications: antibody 8F
recognition of deltanoid-sensitive leukemia cells (HL60 cells [10]): not recognizing | recognition of deltanoid-resistant leukemia cells (KG1 cells [11]): not recognizing
